Laboratory results: publication PMC6398471, “The depolymerase activity of MCAK shows a graded response to Aurora B kinase phosphorylation through allosteric regulation” (Journal of Cell Science, 2019)

B1: full-length human MCAK (natural protein, UniProt Q99661 1-725, looked up)
chain: MAMDSSLQARLFPGLAIKIQRSNGLIHSANVRTVNLEKSCVSVEWAEGGATKGKEIDFDDVAAINPELLQLLPLHPKDNLPLQENVTIQKQKRRSVNSKIPAPKESLRSRSTRMSTVSELRITAQENDMEVELPAAANSRKQFSVPPAPTRPSCPAVAEIPLRMVSEEMEEQVHSIRGSSSANPVNSVRRKSCLVKEVEKMKNKREEKKAQNSEMRMKRAQEYDSSFPNWEFARMIKEFRATLECHPLTMTDPIEEHRICVCVRKRPLNKQELAKKEIDVISIPSKCLLLVHEPKLKVDLTKYLENQAFCFDFAFDETASNEVVYRFTARPLVQTIFEGGKATCFAYGQTGSGKTHTMGGDLSGKAQNASKGIYAMASRDVFLLKNQPCYRKLGLEVYVTFFEIYNGKLFDLLNKKAKLRVLEDGKQQVQVVGLQEHLVNSADDVIKMIDMGSACRTSGQTFANSNSSRSHACFQIILRAKGRMHGKFSLVDLAGNERGADTSSADRQTRMEGAEINKSLLALKECIRALGQNKAHTPFRESKLTQVLRDSFIGENSRTCMIATISPGISSCEYTLNTLRYADRVKELSPHSGPSGEQLIQMETEEMEACSNGALIPGNLSKEEEELSSQMSSFNEAMTQIRELEEKAMEELKEIIQQGPDWLELSEMTEQPDYDLETFVNKAESALAQQAKHFSALRDVIKALRLAMQLEEQASRQISSKKRPQ
notes: MCAK (Kif2C), human, full length; also called Kif2C; kinesin-13; source: Sf9 insect cells (pFastBac), purified
B2: MCAKS6E-GFP (natural protein, human, UniProt Q99661 1-725, looked up)
chain: MAMDSSLQARLFPGLAIKIQRSNGLIHSANVRTVNLEKSCVSVEWAEGGATKGKEIDFDDVAAINPELLQLLPLHPKDNLPLQENVTIQKQKRREVNSKIPAPKESLRERETRMETVSELRITAQENDMEVELPAAANSRKQFSVPPAPTRPSCPAVAEIPLRMVEEEMEEQVHSIRGSSSANPVNSVRRKECLVKEVEKMKNKREEKKAQNSEMRMKRAQEYDSSFPNWEFARMIKEFRATLECHPLTMTDPIEEHRICVCVRKRPLNKQELAKKEIDVISIPSKCLLLVHEPKLKVDLTKYLENQAFCFDFAFDETASNEVVYRFTARPLVQTIFEGGKATCFAYGQTGSGKTHTMGGDLSGKAQNASKGIYAMASRDVFLLKNQPCYRKLGLEVYVTFFEIYNGKLFDLLNKKAKLRVLEDGKQQVQVVGLQEHLVNSADDVIKMIDMGSACRTSGQTFANSNSSRSHACFQIILRAKGRMHGKFSLVDLAGNERGADTSSADRQTRMEGAEINKSLLALKECIRALGQNKAHTPFRESKLTQVLRDSFIGENSRTCMIATISPGISSCEYTLNTLRYADRVKELSPHSGPSGEQLIQMETEEMEACSNGALIPGNLSKEEEELSSQMSSFNEAMTQIRELEEKAMEELKEIIQQGPDWLELSEMTEQPDYDLETFVNKAESALAQQAKHFSALRDVIKALRLAMQLEEQASRQISSKKRPQ
notes: MCAK (Kif2C), human, full length, Aurora B phosphomimetic for six serines in the N-terminus and neck; Site-directed mutagenesis of MCAK-GFP; source: Sf9 insect cells (pFastBac), purified; not shown: GFP, C-terminal, kept
B3: MCAK-GFP (natural protein, human, UniProt Q99661 1-725, looked up)
chain: MAMDSSLQARLFPGLAIKIQRSNGLIHSANVRTVNLEKSCVSVEWAEGGATKGKEIDFDDVAAINPELLQLLPLHPKDNLPLQENVTIQKQKRRSVNSKIPAPKESLRSRSTRMSTVSELRITAQENDMEVELPAAANSRKQFSVPPAPTRPSCPAVAEIPLRMVSEEMEEQVHSIRGSSSANPVNSVRRKSCLVKEVEKMKNKREEKKAQNSEMRMKRAQEYDSSFPNWEFARMIKEFRATLECHPLTMTDPIEEHRICVCVRKRPLNKQELAKKEIDVISIPSKCLLLVHEPKLKVDLTKYLENQAFCFDFAFDETASNEVVYRFTARPLVQTIFEGGKATCFAYGQTGSGKTHTMGGDLSGKAQNASKGIYAMASRDVFLLKNQPCYRKLGLEVYVTFFEIYNGKLFDLLNKKAKLRVLEDGKQQVQVVGLQEHLVNSADDVIKMIDMGSACRTSGQTFANSNSSRSHACFQIILRAKGRMHGKFSLVDLAGNERGADTSSADRQTRMEGAEINKSLLALKECIRALGQNKAHTPFRESKLTQVLRDSFIGENSRTCMIATISPGISSCEYTLNTLRYADRVKELSPHSGPSGEQLIQMETEEMEACSNGALIPGNLSKEEEELSSQMSSFNEAMTQIRELEEKAMEELKEIIQQGPDWLELSEMTEQPDYDLETFVNKAESALAQQAKHFSALRDVIKALRLAMQLEEQASRQISSKKRPQ
notes: MCAK (Kif2C), human, full length; also called GFP-tagged MCAK; source: Sf9 insect cells (pFastBac), purified; not shown: GFP, C-terminal, kept
B4: MCAKS2E-GFP (natural protein, human, UniProt Q99661 1-725, looked up)
chain: MAMDSSLQARLFPGLAIKIQRSNGLIHSANVRTVNLEKSCVSVEWAEGGATKGKEIDFDDVAAINPELLQLLPLHPKDNLPLQENVTIQKQKRRSVNSKIPAPKESLRSRSTRMSTVSELRITAQENDMEVELPAAANSRKQFSVPPAPTRPSCPAVAEIPLRMVEEEMEEQVHSIRGSSSANPVNSVRRKECLVKEVEKMKNKREEKKAQNSEMRMKRAQEYDSSFPNWEFARMIKEFRATLECHPLTMTDPIEEHRICVCVRKRPLNKQELAKKEIDVISIPSKCLLLVHEPKLKVDLTKYLENQAFCFDFAFDETASNEVVYRFTARPLVQTIFEGGKATCFAYGQTGSGKTHTMGGDLSGKAQNASKGIYAMASRDVFLLKNQPCYRKLGLEVYVTFFEIYNGKLFDLLNKKAKLRVLEDGKQQVQVVGLQEHLVNSADDVIKMIDMGSACRTSGQTFANSNSSRSHACFQIILRAKGRMHGKFSLVDLAGNERGADTSSADRQTRMEGAEINKSLLALKECIRALGQNKAHTPFRESKLTQVLRDSFIGENSRTCMIATISPGISSCEYTLNTLRYADRVKELSPHSGPSGEQLIQMETEEMEACSNGALIPGNLSKEEEELSSQMSSFNEAMTQIRELEEKAMEELKEIIQQGPDWLELSEMTEQPDYDLETFVNKAESALAQQAKHFSALRDVIKALRLAMQLEEQASRQISSKKRPQ
notes: MCAK (Kif2C), human, full length, phosphomimetic in the neck region (Ser192 and Ser166 replaced by glutamate); Site-directed mutagenesis of MCAK-GFP; source: Sf9 insect cells (pFastBac), purified; not shown: GFP, C-terminal, kept
B5: Aurora B-phosphorylated MCAK-GFP (natural protein, human, UniProt Q99661 1-725, looked up)
chain: MAMDSSLQARLFPGLAIKIQRSNGLIHSANVRTVNLEKSCVSVEWAEGGATKGKEIDFDDVAAINPELLQLLPLHPKDNLPLQENVTIQKQKRRSVNSKIPAPKESLRSRSTRMSTVSELRITAQENDMEVELPAAANSRKQFSVPPAPTRPSCPAVAEIPLRMVSEEMEEQVHSIRGSSSANPVNSVRRKSCLVKEVEKMKNKREEKKAQNSEMRMKRAQEYDSSFPNWEFARMIKEFRATLECHPLTMTDPIEEHRICVCVRKRPLNKQELAKKEIDVISIPSKCLLLVHEPKLKVDLTKYLENQAFCFDFAFDETASNEVVYRFTARPLVQTIFEGGKATCFAYGQTGSGKTHTMGGDLSGKAQNASKGIYAMASRDVFLLKNQPCYRKLGLEVYVTFFEIYNGKLFDLLNKKAKLRVLEDGKQQVQVVGLQEHLVNSADDVIKMIDMGSACRTSGQTFANSNSSRSHACFQIILRAKGRMHGKFSLVDLAGNERGADTSSADRQTRMEGAEINKSLLALKECIRALGQNKAHTPFRESKLTQVLRDSFIGENSRTCMIATISPGISSCEYTLNTLRYADRVKELSPHSGPSGEQLIQMETEEMEACSNGALIPGNLSKEEEELSSQMSSFNEAMTQIRELEEKAMEELKEIIQQGPDWLELSEMTEQPDYDLETFVNKAESALAQQAKHFSALRDVIKALRLAMQLEEQASRQISSKKRPQ
modifications: phosphorylated in vitro with Aurora B kinase; the sites modified in this sample are not stated
notes: MCAK (Kif2C), human, full length; Phosphorylation protocol is in Welburn et al., 2010; source: Sf9 insect cells (pFastBac), purified, phosphorylated in vitro with Aurora B kinase; not shown: GFP, C-terminal, kept

What was measured:
[1] = target: Taxol-stabilized microtubules, digoxigenin- and HyLite-647-labeled, P02550;P02554; assay: single-molecule imaging of MCAK-GFP on microtubules; conditions: 32 mM K-PIPES, parent: 6.14e-6
[2] = target: the molecule itself; assay: cross-linking; BS3 on MCAK alone: 10 µg MCAK with 20 µg BS3 in 10 mM HEPES pH 7, 200 mM potassium acetate pH 7.6, on ice 1 h; SDS-PAGE, band cut out, mass spectrometry
[3] = target: Taxol-stabilized microtubules, digoxigenin- and HyLite-647-labeled (UniProt P02550 1-451; P02554 1-445, 8% of the tubulin digoxigenin-labeled, 3.5% labeled with HyLite-647; chain and residues not stated | 8% of the tubulin digoxigenin-labeled, 3.5% labeled with HyLite-647; chain and residues not stated); assay: single-molecule TIRF microscopy (residence times); microtubules held on the coverslip by anti-DIG antibody; MCAK at 5-100 pM in MRB80 (80 mM K-PIPES pH 6.9, 1 mM EGTA, 4 mM MgCl2) with 1 mM ATP, κ-casein, 40 µM taxol; 23°C; off-rate = 1/τ of a single exponential fit; conditions: both partners purified
Sequence of Taxol-stabilized microtubules, digoxigenin- and HyLite-647-labeled (P02550 whole entry, chain 1 of 2): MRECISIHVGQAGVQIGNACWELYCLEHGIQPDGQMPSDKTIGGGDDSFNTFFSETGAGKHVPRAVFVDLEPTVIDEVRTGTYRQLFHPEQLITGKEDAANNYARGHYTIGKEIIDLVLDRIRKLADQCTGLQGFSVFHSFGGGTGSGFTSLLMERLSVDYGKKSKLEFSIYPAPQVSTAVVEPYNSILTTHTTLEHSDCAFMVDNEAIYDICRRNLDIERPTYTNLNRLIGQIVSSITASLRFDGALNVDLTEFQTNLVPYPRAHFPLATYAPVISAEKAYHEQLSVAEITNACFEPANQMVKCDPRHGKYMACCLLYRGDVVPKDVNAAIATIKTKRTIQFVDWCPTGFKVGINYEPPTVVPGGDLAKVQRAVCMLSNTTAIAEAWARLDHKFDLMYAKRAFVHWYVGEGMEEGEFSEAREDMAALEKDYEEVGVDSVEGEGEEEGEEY
Sequence of Taxol-stabilized microtubules, digoxigenin- and HyLite-647-labeled (P02554 whole entry, chain 2 of 2): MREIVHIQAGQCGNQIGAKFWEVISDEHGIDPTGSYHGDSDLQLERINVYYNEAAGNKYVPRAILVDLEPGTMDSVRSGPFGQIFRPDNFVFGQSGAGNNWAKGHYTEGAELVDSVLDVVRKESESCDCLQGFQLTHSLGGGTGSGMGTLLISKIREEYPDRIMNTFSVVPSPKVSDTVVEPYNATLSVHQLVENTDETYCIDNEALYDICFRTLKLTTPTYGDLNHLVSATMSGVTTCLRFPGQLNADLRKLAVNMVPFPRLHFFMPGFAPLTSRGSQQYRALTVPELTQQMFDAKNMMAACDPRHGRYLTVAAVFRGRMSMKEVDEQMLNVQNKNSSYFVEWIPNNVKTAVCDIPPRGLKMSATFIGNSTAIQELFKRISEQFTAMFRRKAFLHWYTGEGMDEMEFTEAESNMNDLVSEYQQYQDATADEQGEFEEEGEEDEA

Molecule | koff [3] | further results
MCAK-GFP (from UniProt Q99661) S95E; S109E; S111E; S115E; S166E; S192E |  | kon ([1]; n = 439): 11000 M⁻¹ s⁻¹
MCAK-GFP (from UniProt Q99661) S166E; S192E |  | kon ([1]; n = 280): 6720 M⁻¹ s⁻¹
B1 |  | stoichiometry N [2]: 2
B2 | 25.8 s⁻¹ | 
B3 | 1.6 s⁻¹ | 
B4 | 3.2 s⁻¹ | 
B5 | 23.4 s⁻¹ | 
